# Reference: patent US20250154287A1 (Pfizer, published 2025)
# Numbering of substitutions follows the chain as printed.
# T1: biotinylated human MIGIS-α peptide (human, biotinylated)
# T1 peptide: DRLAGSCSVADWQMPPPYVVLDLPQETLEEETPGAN
# B1: GBT-IgA-0035 (ET17) (antibody, V domains shown)
# VH: EVQLLESGGGLVQPGGSLRLSCAASGFTFSRYAMSWVRQVPGKGLEWVSAITGSGSGTYYADPVKGRFTISRDNSKNTLYLQMNSLRAEDTAVYHCAKERSGSSSDYWGQGTLVTVSS
# VL: EIVLTQSPATLSLSPGERATLSCRASQTVGSHLAWYQQKPGQAPRLLIYEASNRATGIPPRFSGSGSGTDFTLTISSLEPEDFAVYYCQQRNNWPITFGQGTRLESKR
# notes: Heavy constant region of the tested format is not tied to this name; also called E17
# B2: GBT-IgA-0020 (15E7) (antibody, V domains shown)
# VH: B1 VH with R31S
# VL: B1 VL with G30S, H32Y
# B3: GBT-IgA-0036 (ET18) (antibody, V domains shown)
# VH: B1 VH
# VL: B1 VL with G30S
# notes: Heavy constant region of the tested format is not tied to this name; also called E18
# B4: GBT-IgA-0034 (ET10) (antibody, V domains shown)
# VH: B1 VH with R31S, A50S, S56G
# VL: B1 VL with G30R
# notes: Heavy constant region of the tested format is not tied to this name; also called E10
# B5: GBT-IgA-0070 (H05 in one arm antibody format) (antibody)
# heavy: not shown
# chain: EPKSSDKTHTCPPCPAPEAAGAPSVFLFPPKPKDTLMISRTPEVTCVVVDVSHEDPEVKFNWYVDGVEVHNAKTKPREEQYNSTYRVVSVLTVLHQDWLNGKEYKCKVSNKALPAPIEKTISKAKGQPREPQVYTLPPCREEMTKNQVSLSCAVKGFYPSDIAVEWESNGQPENNYKTTPPVLDSDGSFFLVSKLTVDKSRWQQGNVFSCSVMHEALHNRYTQKSLSLSPGK
# light: not shown
# notes: also called H05 OAA
# B6: GBT-IgA-1572 (antibody)
# heavy: not shown
# chain: B5 chain
# light: not shown
# notes: One-armed antibody
# B7: GBT-IgA-1090 (antibody)
# heavy: not shown
# chain: B5 chain
# light: not shown
# notes: One-armed antibody
# B8: GBT-IgA-1091 (antibody)
# heavy: not shown
# chain: B5 chain
# light: not shown
# notes: One-armed antibody; also called one armed antibody version of GBT-IgA-1602; OAA of GBT-IgA-1179
# B9: GBT-IgA-0752 (GBT-IgA-0862 in one armed format) (antibody)
# heavy: not shown
# chain: B5 chain
# light: not shown
# notes: also called one armed format of GBT-IgA-0862 and of GBT-IgA-1164
# Target: T2, human membrane IgA overexpressed on Ramos cells (human)
# T2 construct: its MIGIS-α segment is the short form; also called IgA^+ Ramos; human IgA^+ RAMOS cells
# T2 sequence (heavy, as listed by the source): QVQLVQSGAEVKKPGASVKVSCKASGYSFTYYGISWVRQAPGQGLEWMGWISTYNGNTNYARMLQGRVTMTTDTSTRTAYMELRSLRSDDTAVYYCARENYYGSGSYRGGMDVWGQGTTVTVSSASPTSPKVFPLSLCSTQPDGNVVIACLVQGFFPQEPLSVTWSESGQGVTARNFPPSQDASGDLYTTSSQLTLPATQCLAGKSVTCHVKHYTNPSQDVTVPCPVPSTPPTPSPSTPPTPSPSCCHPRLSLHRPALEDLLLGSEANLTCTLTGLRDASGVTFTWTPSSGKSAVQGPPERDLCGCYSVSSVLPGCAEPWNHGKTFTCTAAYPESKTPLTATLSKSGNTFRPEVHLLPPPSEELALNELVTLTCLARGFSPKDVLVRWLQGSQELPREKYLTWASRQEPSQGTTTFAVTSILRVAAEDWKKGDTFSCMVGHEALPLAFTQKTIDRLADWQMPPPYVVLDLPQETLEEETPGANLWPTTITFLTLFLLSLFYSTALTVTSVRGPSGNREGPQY
# Assay: flow cytometry on IgA+ Ramos cells
EC50,mean fluorescence intensity at the top saturating concentration tested,Binder
11.9 nM,23600 MFI,B1
64.5 nM,23100 MFI,B2
10.8 nM,26100 MFI,B3
27 nM,22600 MFI,B4

# Target: T1, biotinylated human MIGIS-α peptide
# Assay: SPR (Biacore T200, 37 C), biotinylated peptide captured, OAA as analyte, 1:1 fit
Kd,koff,kon,Binder
210 nM,0.0222 s⁻¹,105000 M⁻¹ s⁻¹,B5
3.47 nM,0.0028 s⁻¹,818000 M⁻¹ s⁻¹,B6
0.724 nM,0.0015 s⁻¹,2.06e+06 M⁻¹ s⁻¹,B7
2.13 nM,0.0028 s⁻¹,1.32e+06 M⁻¹ s⁻¹,B8
0.665 nM,0.0015 s⁻¹,2.29e+06 M⁻¹ s⁻¹,B9

# Target: T3, biotinylated cyno MIGIS-α peptide (cynomolgus monkey)
# T3 construct: domain: MIGIS-α
# Assay: as above
Kd,koff,kon,Binder
56 nM,0.0154 s⁻¹,275000 M⁻¹ s⁻¹,B5
3.4 nM,0.0018 s⁻¹,548000 M⁻¹ s⁻¹,B6
1.05 nM,0.0013 s⁻¹,1.27e+06 M⁻¹ s⁻¹,B7
2.46 nM,0.0023 s⁻¹,953000 M⁻¹ s⁻¹,B8
0.795 nM,0.0017 s⁻¹,2.22e+06 M⁻¹ s⁻¹,B9

# Target: T4, parental (IgA^-) Ramos cell line, which expresses only cell surface IgM (UniProt P01871 1-474)
# T4 construct: whole, on cells; Negative control cells without membrane IgA; also called mIgA negative Ramos cells; parental Ramos
# T4 sequence (P01871 whole entry): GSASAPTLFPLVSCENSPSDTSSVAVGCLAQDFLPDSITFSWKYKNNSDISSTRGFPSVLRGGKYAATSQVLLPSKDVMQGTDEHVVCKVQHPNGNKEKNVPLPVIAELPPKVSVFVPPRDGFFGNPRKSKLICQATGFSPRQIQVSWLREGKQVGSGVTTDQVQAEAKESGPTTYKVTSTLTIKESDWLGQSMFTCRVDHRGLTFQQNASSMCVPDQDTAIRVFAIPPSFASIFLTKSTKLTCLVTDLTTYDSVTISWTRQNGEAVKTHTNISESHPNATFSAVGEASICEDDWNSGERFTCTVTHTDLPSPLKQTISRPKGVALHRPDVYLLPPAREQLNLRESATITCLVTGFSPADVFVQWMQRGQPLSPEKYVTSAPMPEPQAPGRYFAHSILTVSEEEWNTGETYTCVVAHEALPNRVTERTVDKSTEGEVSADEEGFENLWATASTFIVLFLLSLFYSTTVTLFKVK
# Assay: flow cytometry on parental Ramos cells
row,binding result,Binder
1,no binding,B1
2,no binding,B2
3,no binding,B3
4,no binding,B4

# Target: T1, biotinylated human MIGIS-α peptide
# Assay: SPR, OAA format
fold affinity difference against GBT-IgA-1091,fold affinity gain over T18,Binder
~3 fold,~16 fold,B9

# Target: T3, biotinylated cyno MIGIS-α peptide
# Assay: SPR, OAA format
fold affinity difference against GBT-IgA-1091,fold affinity gain over T18,Binder
~3 fold,~14 fold,B9
